# Reference: publication PMC5594479, “Identification and immobilization of a novel cold-adapted esterase, and its potential for bioremediation of pyrethroid-contaminated vegetables” (Microbial Cell Factories, 2017)
# Substrate: CCCC(=O)Oc1ccc([N+](=O)[O-])cc1
# Experiment: purified protein
# Type: biochemical, uncultured microorganism
# Settings: free (soluble) enzyme, potassium phosphate pH 6.5, 18 °C, substrate range printed as 1.0 to 10.0 mM, does not fit the printed Km unit
protein,measurement,value
"Est684 (uncultured microorganism) (protein, E. coli BL21 (DE3); Ni-NTA and Superdex 200; putative triad S103/D167/H203) MPSGENQFYVDKPSRGENYGAYVADELVEFTRKMFPLSYKKEDTFIAGLSMGGYGALINGLKYHETFSHIGAFSPGLMIDDIASRSELLSVTGWSMDFYGNSFGGIDTIKNSDKDYYYLIDQLLENKKEIPKIYLPIGTDDFLLESVRGFKSFVDKREVPLTYIEDDGGHEWDFWDKYVKNFLEWLPLEEKGNYLNSGNVAEHGFRDADAQKAQAALVAWFEETLKK",Km,6.01 mM
same,kcat,417.15 ± 1.51 s⁻¹
